Experimental data as given in the supplement of paper PMC9112550, “Optimization of the antimicrobial peptide Bac7 by deep mutational scanning” (BMC Biology, 2022).

Tested on: Escherichia coli TOP10
Assay: shrunken log2 fold change of peptide-encoding DNA abundance (4.5 h post-induction vs induction); higher = less antimicrobial activity (less host growth inhibition)
Conditions: time post-induction: 4.5 h; library: site-saturation at positions 5, 18, 19, 20
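Further: peptides expressed intracellularly from a pBAD plasmid library in pooled LB shake-flask culture, induced with 0.3% L-arabinose, DNA abundance read by NGS, three biological replicates, DESeq2 with apeglm shrinkage.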

Sequence: RRIRQRPPRLPRPRPRPLCKPRP
- shrunken log2 fold change: -0.406

Sequence: RRIRGRPPRLPRPRPRPQMGPRP
- shrunken log2 fold change: 0.339

Sequence: RRIRMRPPRLPRPRPRPCDTPRP
- shrunken log2 fold change: 0.13

Sequence: RRIRDRPPRLPRPRPRPPNVPRP
- shrunken log2 fold change: -0.0362

Sequence: RRIRARPPRLPRPRPRPCTFPRP
- shrunken log2 fold change: -0.365

Sequence: RRIRTRPPRLPRPRPRPHGVPRP
- shrunken log2 fold change: -0.00162

Sequence: RRIRARPPRLPRPRPRPNCPPRP
- shrunken log2 fold change: -0.0021

Sequence: RRIRERPPRLPRPRPRPRACPRP
- shrunken log2 fold change: 0.177

Sequence: RRIRRRPPRLPRPRPRPYDHPRP
- shrunken log2 fold change: -0.149

Sequence: RRIRQRPPRLPRPRPRPIVIPRP
- shrunken log2 fold change: 0.0668

Sequence: RRIRGRPPRLPRPRPRPVDNPRP
- shrunken log2 fold change: 0.408

Sequence: RRIRARPPRLPRPRPRPKTNPRP
- shrunken log2 fold change: 0.436

Sequence: RRIRYRPPRLPRPRPRPIELPRP
- shrunken log2 fold change: -0.0405

Sequence: RRIRFRPPRLPRPRPRPHMCPRP
- shrunken log2 fold change: -1.24

Sequence: RRIRDRPPRLPRPRPRPSPTPRP
- shrunken log2 fold change: -0.0251

Sequence: RRIRVRPPRLPRPRPRPPWNPRP
- shrunken log2 fold change: 0.0143

Sequence: RRIRPRPPRLPRPRPRPCLWPRP
- shrunken log2 fold change: 0.0902

Sequence: RRIRCRPPRLPRPRPRPPYHPRP
- shrunken log2 fold change: -0.334

Sequence: RRIRNRPPRLPRPRPRPPWWPRP
- shrunken log2 fold change: 0.788

Sequence: RRIRARPPRLPRPRPRPEYEPRP
- shrunken log2 fold change: 0.262

Sequence: RRIRDRPPRLPRPRPRPPALPRP
- shrunken log2 fold change: 0.239

Sequence: RRIRRRPPRLPRPRPRPGDDPRP
- shrunken log2 fold change: 0.362

Sequence: RRIRVRPPRLPRPRPRPQPDPRP
- shrunken log2 fold change: 0.23

Sequence: RRIRLRPPRLPRPRPRPENCPRP
- shrunken log2 fold change: -0.0062

Sequence: RRIRQRPPRLPRPRPRPKKHPRP
- shrunken log2 fold change: -0.236

Sequence: RRIRFRPPRLPRPRPRPQLHPRP
- shrunken log2 fold change: 0.381

Sequence: RRIRDRPPRLPRPRPRPATCPRP
- shrunken log2 fold change: 0.171

Sequence: RRIRCRPPRLPRPRPRPRHTPRP
- shrunken log2 fold change: -0.0438

Sequence: RRIRERPPRLPRPRPRPELGPRP
- shrunken log2 fold change: 0.0169

Sequence: RRIRQRPPRLPRPRPRPQRLPRP
- shrunken log2 fold change: -0.0136

Sequence: RRIRLRPPRLPRPRPRPLPGPRP
- shrunken log2 fold change: 0.781

Sequence: RRIRIRPPRLPRPRPRPECYPRP
- shrunken log2 fold change: -0.146

Sequence: RRIRPRPPRLPRPRPRPSVQPRP
- shrunken log2 fold change: -0.0553

Sequence: RRIRMRPPRLPRPRPRPYTSPRP
- shrunken log2 fold change: -0.265

Sequence: RRIRLRPPRLPRPRPRPTNHPRP
- shrunken log2 fold change: -0.174

Sequence: RRIRHRPPRLPRPRPRPMSRPRP
- shrunken log2 fold change: -0.0252

Sequence: RRIRGRPPRLPRPRPRPIWSPRP
- shrunken log2 fold change: 0.15

Sequence: RRIRWRPPRLPRPRPRPNDAPRP
- shrunken log2 fold change: 0.0398

Sequence: RRIRFRPPRLPRPRPRPTGNPRP
- shrunken log2 fold change: -0.245

Sequence: RRIRARPPRLPRPRPRPPHEPRP
- shrunken log2 fold change: 1.29

Sequence: RRIRSRPPRLPRPRPRPTKMPRP
- shrunken log2 fold change: 0.00603

Sequence: RRIRQRPPRLPRPRPRPTGGPRP
- shrunken log2 fold change: 0.0146

Sequence: RRIRIRPPRLPRPRPRPLTVPRP
- shrunken log2 fold change: -0.114

Sequence: RRIRARPPRLPRPRPRPHAEPRP
- shrunken log2 fold change: 0.955

Sequence: RRIRSRPPRLPRPRPRPNTYPRP
- shrunken log2 fold change: -0.232

Sequence: RRIRKRPPRLPRPRPRPVLCPRP
- shrunken log2 fold change: 0.241

Sequence: RRIRTRPPRLPRPRPRPVRGPRP
- shrunken log2 fold change: 0.784

Sequence: RRIRHRPPRLPRPRPRPRVSPRP
- shrunken log2 fold change: 0.106

Sequence: RRIRCRPPRLPRPRPRPINWPRP
- shrunken log2 fold change: -0.407

Sequence: RRIRLRPPRLPRPRPRPGWMPRP
- shrunken log2 fold change: 0.0923

Sequence: RRIRHRPPRLPRPRPRPECCPRP
- shrunken log2 fold change: 0.203

Sequence: RRIRDRPPRLPRPRPRPHMYPRP
- shrunken log2 fold change: -0.102

Sequence: RRIRRRPPRLPRPRPRPFVYPRP
- shrunken log2 fold change: -0.0209

Sequence: RRIRNRPPRLPRPRPRPFAGPRP
- shrunken log2 fold change: 0.0411

Sequence: RRIRNRPPRLPRPRPRPQADPRP
- shrunken log2 fold change: -0.0176

Sequence: RRIRHRPPRLPRPRPRPRCLPRP
- shrunken log2 fold change: -0.169

Sequence: RRIRDRPPRLPRPRPRPTPEPRP
- shrunken log2 fold change: 0.152

Sequence: RRIRNRPPRLPRPRPRPDTDPRP
- shrunken log2 fold change: 0.0251

Sequence: RRIRNRPPRLPRPRPRPPTWPRP
- shrunken log2 fold change: 0.434

Sequence: RRIRLRPPRLPRPRPRPMVGPRP
- shrunken log2 fold change: -0.135

Sequence: RRIRNRPPRLPRPRPRPFRHPRP
- shrunken log2 fold change: -0.727

Sequence: RRIRTRPPRLPRPRPRPGHNPRP
- shrunken log2 fold change: -0.184

Sequence: RRIRRRPPRLPRPRPRPFRWPRP
- shrunken log2 fold change: 0.279

Sequence: RRIRERPPRLPRPRPRPKCGPRP
- shrunken log2 fold change: 0.0971

Sequence: RRIRDRPPRLPRPRPRPQFIPRP
- shrunken log2 fold change: -0.935

Sequence: RRIRDRPPRLPRPRPRPWSNPRP
- shrunken log2 fold change: -0.678

Sequence: RRIRERPPRLPRPRPRPNWAPRP
- shrunken log2 fold change: 0.0312

Sequence: RRIRTRPPRLPRPRPRPGPQPRP
- shrunken log2 fold change: 0.0198

Sequence: RRIRYRPPRLPRPRPRPHISPRP
- shrunken log2 fold change: -0.317

Sequence: RRIRWRPPRLPRPRPRPRFKPRP
- shrunken log2 fold change: 0.0187

Sequence: RRIRNRPPRLPRPRPRPGSGPRP
- shrunken log2 fold change: 0.179

Sequence: RRIRQRPPRLPRPRPRPGDVPRP
- shrunken log2 fold change: -0.222

Sequence: RRIRCRPPRLPRPRPRPFNLPRP
- shrunken log2 fold change: -0.335

Sequence: RRIRQRPPRLPRPRPRPPRRPRP
- shrunken log2 fold change: 0.852

Sequence: RRIRTRPPRLPRPRPRPHWTPRP
- shrunken log2 fold change: -0.0902

Sequence: RRIRIRPPRLPRPRPRPTFMPRP
- shrunken log2 fold change: 1.69

Sequence: RRIRVRPPRLPRPRPRPESWPRP
- shrunken log2 fold change: 0.28

Sequence: RRIRIRPPRLPRPRPRPTWPPRP
- shrunken log2 fold change: 0.368

Sequence: RRIRSRPPRLPRPRPRPINVPRP
- shrunken log2 fold change: -0.418

Sequence: RRIRSRPPRLPRPRPRPSAYPRP
- shrunken log2 fold change: -0.0159

Sequence: RRIRARPPRLPRPRPRPIVVPRP
- shrunken log2 fold change: -0.14

Sequence: RRIRCRPPRLPRPRPRPFTFPRP
- shrunken log2 fold change: -0.351

Sequence: RRIRIRPPRLPRPRPRPTVWPRP
- shrunken log2 fold change: 0.163

Sequence: RRIRTRPPRLPRPRPRPECEPRP
- shrunken log2 fold change: 0.154

Sequence: RRIRPRPPRLPRPRPRPFITPRP
- shrunken log2 fold change: -0.678

Sequence: RRIRPRPPRLPRPRPRPSQFPRP
- shrunken log2 fold change: -0.0669

Sequence: RRIRPRPPRLPRPRPRPHHQPRP
- shrunken log2 fold change: -0.399

Sequence: RRIRHRPPRLPRPRPRPEDAPRP
- shrunken log2 fold change: -0.0619

Sequence: RRIRTRPPRLPRPRPRPSRTPRP
- shrunken log2 fold change: 0.305

Sequence: RRIRLRPPRLPRPRPRPTWIPRP
- shrunken log2 fold change: 0.0209

Sequence: RRIRVRPPRLPRPRPRPKSAPRP
- shrunken log2 fold change: 0.172

Sequence: RRIRIRPPRLPRPRPRPEIYPRP
- shrunken log2 fold change: -4.67e-05

Sequence: RRIRDRPPRLPRPRPRPDMTPRP
- shrunken log2 fold change: 0.242

Sequence: RRIRRRPPRLPRPRPRPEPAPRP
- shrunken log2 fold change: 0.812

Sequence: RRIRDRPPRLPRPRPRPSTSPRP
- shrunken log2 fold change: -0.115

Sequence: RRIRARPPRLPRPRPRPTNQPRP
- shrunken log2 fold change: 0.153

Sequence: RRIRQRPPRLPRPRPRPCCNPRP
- shrunken log2 fold change: -0.0838

Sequence: RRIRMRPPRLPRPRPRPPFPPRP
- shrunken log2 fold change: 0.671

Sequence: RRIRNRPPRLPRPRPRPSHEPRP
- shrunken log2 fold change: 0.00187

Sequence: RRIRKRPPRLPRPRPRPPCSPRP
- shrunken log2 fold change: 0.202

Sequence: RRIRERPPRLPRPRPRPSMWPRP
- shrunken log2 fold change: -0.0377

Sequence: RRIRTRPPRLPRPRPRPKCTPRP
- shrunken log2 fold change: -0.0569

Sequence: RRIRVRPPRLPRPRPRPVMAPRP
- shrunken log2 fold change: 0.0266

Sequence: RRIRHRPPRLPRPRPRPPPAPRP
- shrunken log2 fold change: 1.07

Sequence: RRIRMRPPRLPRPRPRPTQEPRP
- shrunken log2 fold change: 0.433

Sequence: RRIRKRPPRLPRPRPRPYSIPRP
- shrunken log2 fold change: -0.182

Sequence: RRIRDRPPRLPRPRPRPFRSPRP
- shrunken log2 fold change: -0.0401

Sequence: RRIRWRPPRLPRPRPRPTWFPRP
- shrunken log2 fold change: -0.0378

Sequence: RRIRHRPPRLPRPRPRPNHIPRP
- shrunken log2 fold change: -0.844

Sequence: RRIRMRPPRLPRPRPRPKMPPRP
- shrunken log2 fold change: 0.493

Sequence: RRIRGRPPRLPRPRPRPYRSPRP
- shrunken log2 fold change: -0.113

Sequence: RRIRHRPPRLPRPRPRPNWFPRP
- shrunken log2 fold change: -0.0203

Sequence: RRIRARPPRLPRPRPRPMHRPRP
- shrunken log2 fold change: -0.137

Sequence: RRIRERPPRLPRPRPRPGDWPRP
- shrunken log2 fold change: 0.212

Sequence: RRIRIRPPRLPRPRPRPEPTPRP
- shrunken log2 fold change: 0.659

Sequence: RRIRYRPPRLPRPRPRPNGMPRP
- shrunken log2 fold change: -0.0465

Sequence: RRIRGRPPRLPRPRPRPNSWPRP
- shrunken log2 fold change: 0.356

Sequence: RRIRARPPRLPRPRPRPPCIPRP
- shrunken log2 fold change: -0.111

Sequence: RRIRHRPPRLPRPRPRPNWKPRP
- shrunken log2 fold change: -0.0172

Sequence: RRIRFRPPRLPRPRPRPGWCPRP
- shrunken log2 fold change: 0.109

Sequence: RRIRWRPPRLPRPRPRPCHLPRP
- shrunken log2 fold change: -0.211

Sequence: RRIRERPPRLPRPRPRPRAGPRP
- shrunken log2 fold change: 0.459

Sequence: RRIRVRPPRLPRPRPRPAAAPRP
- shrunken log2 fold change: 0.69

Sequence: RRIRERPPRLPRPRPRPLFVPRP
- shrunken log2 fold change: -0.799

Sequence: RRIRPRPPRLPRPRPRPMTRPRP
- shrunken log2 fold change: 0.0702
